In the assay the target is Flag–UBR4 (UBR4 tagged at its endogenous locus) (human (endogenous in HEK293T)) (UniProt Q5T4S7). Put plainly: cryo-EM structure; endogenous SIFI immunoprecipitated through tagged UBR4 from HEK293T and run on Superose 6 SEC; the complex formed in cells and was co-purified; single-particle cryo-EM, AF2 models fitted in low-resolution regions.

Chain of Flag–UBR4 (UBR4 tagged at its endogenous locus), Q5T4S7-1 1-5183 (enzyme) (Q5T4S7 whole entry): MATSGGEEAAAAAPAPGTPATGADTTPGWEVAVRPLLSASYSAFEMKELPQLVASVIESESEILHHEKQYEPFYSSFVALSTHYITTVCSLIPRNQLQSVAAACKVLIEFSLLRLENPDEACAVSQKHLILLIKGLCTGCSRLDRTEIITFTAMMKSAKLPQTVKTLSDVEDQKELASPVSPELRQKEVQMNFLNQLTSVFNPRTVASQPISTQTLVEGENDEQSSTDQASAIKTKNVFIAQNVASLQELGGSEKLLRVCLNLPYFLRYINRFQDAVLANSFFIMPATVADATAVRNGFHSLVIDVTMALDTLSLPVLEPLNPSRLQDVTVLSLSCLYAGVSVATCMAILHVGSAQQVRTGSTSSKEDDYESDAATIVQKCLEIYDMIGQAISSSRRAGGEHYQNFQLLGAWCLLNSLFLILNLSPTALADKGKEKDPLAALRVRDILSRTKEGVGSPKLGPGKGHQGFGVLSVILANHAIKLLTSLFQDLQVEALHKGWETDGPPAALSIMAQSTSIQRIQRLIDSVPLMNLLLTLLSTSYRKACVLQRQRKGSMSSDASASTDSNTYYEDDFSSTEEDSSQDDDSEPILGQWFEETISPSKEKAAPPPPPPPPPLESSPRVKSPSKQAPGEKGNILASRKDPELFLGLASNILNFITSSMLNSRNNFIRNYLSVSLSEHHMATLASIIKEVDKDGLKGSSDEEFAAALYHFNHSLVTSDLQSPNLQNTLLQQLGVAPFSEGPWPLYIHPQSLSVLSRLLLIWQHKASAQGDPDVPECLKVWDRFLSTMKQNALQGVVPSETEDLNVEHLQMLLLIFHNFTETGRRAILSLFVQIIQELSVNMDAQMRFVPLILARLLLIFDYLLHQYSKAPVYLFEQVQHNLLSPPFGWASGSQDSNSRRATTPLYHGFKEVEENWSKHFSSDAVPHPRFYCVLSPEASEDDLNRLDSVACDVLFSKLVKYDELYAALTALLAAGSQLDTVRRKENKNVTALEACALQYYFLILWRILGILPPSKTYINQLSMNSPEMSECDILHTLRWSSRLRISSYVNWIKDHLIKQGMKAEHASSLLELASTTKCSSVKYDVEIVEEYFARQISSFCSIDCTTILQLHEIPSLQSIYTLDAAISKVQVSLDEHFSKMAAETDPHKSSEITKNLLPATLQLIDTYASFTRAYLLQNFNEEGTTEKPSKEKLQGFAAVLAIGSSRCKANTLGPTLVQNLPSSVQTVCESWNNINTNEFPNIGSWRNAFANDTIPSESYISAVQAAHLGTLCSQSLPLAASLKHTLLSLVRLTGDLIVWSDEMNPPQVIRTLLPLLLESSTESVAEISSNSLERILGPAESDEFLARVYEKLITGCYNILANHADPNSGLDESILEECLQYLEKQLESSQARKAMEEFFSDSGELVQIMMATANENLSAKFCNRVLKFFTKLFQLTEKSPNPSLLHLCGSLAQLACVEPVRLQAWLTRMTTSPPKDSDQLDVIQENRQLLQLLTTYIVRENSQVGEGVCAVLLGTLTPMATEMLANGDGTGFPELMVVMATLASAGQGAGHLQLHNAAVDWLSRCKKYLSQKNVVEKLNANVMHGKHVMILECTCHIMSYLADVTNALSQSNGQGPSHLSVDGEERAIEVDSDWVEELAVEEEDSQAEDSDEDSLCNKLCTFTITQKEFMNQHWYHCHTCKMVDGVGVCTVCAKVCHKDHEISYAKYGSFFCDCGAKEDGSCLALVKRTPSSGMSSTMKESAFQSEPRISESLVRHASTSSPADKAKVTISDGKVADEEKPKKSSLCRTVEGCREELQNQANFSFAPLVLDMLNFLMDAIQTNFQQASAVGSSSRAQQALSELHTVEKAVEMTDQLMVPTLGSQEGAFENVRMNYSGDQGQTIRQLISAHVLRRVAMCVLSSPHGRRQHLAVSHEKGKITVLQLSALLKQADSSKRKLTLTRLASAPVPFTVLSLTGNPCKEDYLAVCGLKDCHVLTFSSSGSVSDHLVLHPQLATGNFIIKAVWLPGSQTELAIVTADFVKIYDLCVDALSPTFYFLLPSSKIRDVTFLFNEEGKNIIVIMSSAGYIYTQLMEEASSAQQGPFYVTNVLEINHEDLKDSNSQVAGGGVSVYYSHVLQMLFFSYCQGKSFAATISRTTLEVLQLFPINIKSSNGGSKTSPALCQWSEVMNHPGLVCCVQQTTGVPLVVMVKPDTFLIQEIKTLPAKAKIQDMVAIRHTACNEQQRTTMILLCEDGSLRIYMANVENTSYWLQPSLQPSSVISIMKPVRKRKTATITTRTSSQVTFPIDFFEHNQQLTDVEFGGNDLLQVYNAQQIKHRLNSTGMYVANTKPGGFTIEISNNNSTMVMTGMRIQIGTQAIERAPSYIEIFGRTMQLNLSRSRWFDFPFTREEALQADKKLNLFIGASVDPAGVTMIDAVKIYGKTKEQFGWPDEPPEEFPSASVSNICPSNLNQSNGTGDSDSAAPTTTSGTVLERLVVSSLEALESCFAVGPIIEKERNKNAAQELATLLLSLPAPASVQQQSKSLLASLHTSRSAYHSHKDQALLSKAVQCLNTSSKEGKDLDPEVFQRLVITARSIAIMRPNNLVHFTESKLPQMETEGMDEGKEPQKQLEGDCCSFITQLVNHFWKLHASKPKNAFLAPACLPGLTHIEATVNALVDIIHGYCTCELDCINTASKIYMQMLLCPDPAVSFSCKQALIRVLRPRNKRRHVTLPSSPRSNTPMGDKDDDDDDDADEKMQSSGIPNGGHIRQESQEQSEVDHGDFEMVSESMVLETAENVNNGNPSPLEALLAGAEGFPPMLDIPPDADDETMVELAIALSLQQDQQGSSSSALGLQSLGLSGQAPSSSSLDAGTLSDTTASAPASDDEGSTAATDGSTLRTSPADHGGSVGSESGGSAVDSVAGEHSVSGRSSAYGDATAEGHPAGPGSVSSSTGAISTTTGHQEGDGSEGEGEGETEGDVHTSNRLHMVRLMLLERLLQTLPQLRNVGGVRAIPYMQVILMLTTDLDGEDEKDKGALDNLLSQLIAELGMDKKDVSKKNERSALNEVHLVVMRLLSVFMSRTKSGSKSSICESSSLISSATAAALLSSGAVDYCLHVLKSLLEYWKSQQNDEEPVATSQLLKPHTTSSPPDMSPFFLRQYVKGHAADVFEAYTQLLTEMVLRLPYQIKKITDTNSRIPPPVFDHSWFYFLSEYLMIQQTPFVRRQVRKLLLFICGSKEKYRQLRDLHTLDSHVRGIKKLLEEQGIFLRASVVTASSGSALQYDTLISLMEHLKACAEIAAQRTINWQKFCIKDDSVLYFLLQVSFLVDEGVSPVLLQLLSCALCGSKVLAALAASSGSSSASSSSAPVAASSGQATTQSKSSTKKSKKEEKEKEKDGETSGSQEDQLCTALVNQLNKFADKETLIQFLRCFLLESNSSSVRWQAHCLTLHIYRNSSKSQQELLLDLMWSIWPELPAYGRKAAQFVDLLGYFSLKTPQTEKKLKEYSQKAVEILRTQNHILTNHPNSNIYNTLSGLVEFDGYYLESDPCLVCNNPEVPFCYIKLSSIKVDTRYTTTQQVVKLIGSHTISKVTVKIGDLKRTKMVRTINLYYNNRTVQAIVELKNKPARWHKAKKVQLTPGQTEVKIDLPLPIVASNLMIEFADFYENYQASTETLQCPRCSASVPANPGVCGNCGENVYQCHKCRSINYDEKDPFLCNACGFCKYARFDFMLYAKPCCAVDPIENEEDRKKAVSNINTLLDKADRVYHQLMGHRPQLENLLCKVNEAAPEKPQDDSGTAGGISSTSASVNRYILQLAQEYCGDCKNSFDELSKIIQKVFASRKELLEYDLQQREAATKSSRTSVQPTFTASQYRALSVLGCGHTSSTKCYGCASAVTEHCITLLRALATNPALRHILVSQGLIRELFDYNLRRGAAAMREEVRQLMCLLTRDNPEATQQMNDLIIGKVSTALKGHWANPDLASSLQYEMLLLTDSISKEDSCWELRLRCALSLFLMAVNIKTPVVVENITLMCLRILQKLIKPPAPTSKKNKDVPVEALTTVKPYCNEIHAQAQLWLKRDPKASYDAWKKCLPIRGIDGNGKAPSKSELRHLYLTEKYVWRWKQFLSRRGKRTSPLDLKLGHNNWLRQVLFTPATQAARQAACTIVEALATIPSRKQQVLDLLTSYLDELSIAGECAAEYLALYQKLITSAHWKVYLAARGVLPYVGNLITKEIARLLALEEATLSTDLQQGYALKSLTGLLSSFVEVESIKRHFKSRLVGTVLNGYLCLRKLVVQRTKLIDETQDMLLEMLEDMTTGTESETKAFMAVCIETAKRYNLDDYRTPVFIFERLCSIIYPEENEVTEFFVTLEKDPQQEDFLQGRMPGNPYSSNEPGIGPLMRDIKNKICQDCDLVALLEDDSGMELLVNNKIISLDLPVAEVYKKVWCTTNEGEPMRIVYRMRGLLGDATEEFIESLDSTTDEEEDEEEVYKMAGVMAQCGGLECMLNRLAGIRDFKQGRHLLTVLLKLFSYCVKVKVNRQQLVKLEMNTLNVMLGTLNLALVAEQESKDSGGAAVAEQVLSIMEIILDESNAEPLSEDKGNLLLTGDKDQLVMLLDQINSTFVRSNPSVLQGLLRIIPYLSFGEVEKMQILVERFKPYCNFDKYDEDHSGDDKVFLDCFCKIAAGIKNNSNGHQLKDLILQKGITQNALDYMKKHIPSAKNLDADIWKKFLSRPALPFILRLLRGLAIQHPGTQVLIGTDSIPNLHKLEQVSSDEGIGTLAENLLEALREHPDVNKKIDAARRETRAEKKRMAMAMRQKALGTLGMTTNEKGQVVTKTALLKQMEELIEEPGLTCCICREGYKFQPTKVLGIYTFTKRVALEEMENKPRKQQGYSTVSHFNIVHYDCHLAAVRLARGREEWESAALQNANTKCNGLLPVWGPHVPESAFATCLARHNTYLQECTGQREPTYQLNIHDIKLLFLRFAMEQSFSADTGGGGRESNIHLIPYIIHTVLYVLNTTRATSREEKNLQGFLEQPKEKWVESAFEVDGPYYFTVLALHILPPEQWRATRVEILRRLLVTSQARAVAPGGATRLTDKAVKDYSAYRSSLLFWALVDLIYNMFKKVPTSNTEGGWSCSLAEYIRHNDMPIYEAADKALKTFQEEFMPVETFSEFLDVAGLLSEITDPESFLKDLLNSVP

In the case of “Flag–UBR4 (UBR4 tagged at its endogenous locus), Q5T4S7-1 1-5183 (enzyme)”, the stoichiometry N (usually the number of molecules, sites or subunits per partner or assembly) is 2.
